Test results published in the supplement of paper PMC9170038.

These sequences were tested on K4 kissing-loop RNA reporter (assay: apparent KD of K4 kissing-loop reporter; higher = weaker reporter binding). Details: Eterna round: R107; input ligand: FMN 200 uM.
Procedure: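 RNA-MaP round R107: designed RNA switches with theophylline, tryptophan, arginine or FMN aptamers are transcribed on-chip within common flanks. They are titrated with a labelled K4 kissing-loop RNA reporter in RNA-MaP buffer (100 mM Tris pH 7.5, 80 mM KCl, 4 mM MgCl2), without ligand or with the indicated ligand. Median apparent KD per design.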
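Also: bound reporter read as fluorescence of individual clusters on recovered sequencing chips by microscopy, with normalized cluster intensities fitted with a binding model.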

| Sequence | apparent KD of K4 kissing-loop reporter [µM] |
| --- | --- |
| GCUAUGGUAGGAAGGAGCGCUUAUUUAUUUUUAAGAGUGAUGUUCGAUAGUAGAUAUUUAAAGCAGGUAGGUCGCCUACUAUAGC [Arginine B K4 13] | 0.122 |
| UUUUUGGUUUAGAGUGAUGUUCCUUGUAUUCGAGGACCGGUACGGCCGCCACUCGAAUAGAAAAGAAAAGAAAAGAGUGAUGUUU [BDazzled - #3 SS Tryptophan A] | 0.308 |
| UGUACUAUUGUGAGUGAUGUUCACUUCGAUACCAGCAGAGCGAUCUGCCCUUGGCAGCGAGUUAACUGCCGAAAGGCAAGGAUUA [Theo B SS t9] | 0.535 |
| AGGAUGUAGUGAUGUUAUAUAAGAAGUAAACGAGGACCGGUACGGCCGCCACUCGAAGCGGCUACUAGCGCGUUGCGAGGUGCGC [ExTryptoA.Cc] | 0.391 |
| CUAUAGACCCUUCGGAUAGUGAUGUUGUCACGAGGACCGGUACGGCCGCCACUCGCUGCCACCAUACCGCUUCACGGAACGAGCA [theeternabot_exclusion_KL_Trp_A_7] | 0.483 |
| AAACAACUUGACGAUACCAGCUUACUCGGCAAGCCAGUGAUGUUGGUGAAAAGGAGUCAAAGCCCUUGGCAGCGUCGAAGGUCUG [Raatarerin] | 0.271 |
| CGCCGCAACUGAAGGAGCGCGCCAGUGAUGUUGGACGGCUUUGUCAAGGAAACUGCACCGGUGCAGGUAGGUCGCAGUUCGCGGU [Dilea] | 0.278 |
| GUAUGUGGAAACACGUACUUGUAUCCUAGGCAGGAUAUGCGGAAACGCAGAAGGGCCACCGGCGAGUUUAUCCAGUGAUGUUGGA [Ex FMN A 9] | 0.245 |
| AAUAAAAUCACGGCCGCCACUGAAUAAUUACAAAGUAGUGAUGUUACUUUACAUAUCUUAUUUAACAGGACCGGGUGAAUAUUUA [JR_ExcTryptoB_Sub007] | 0.0786 |
| GAACGGCGGGCGGCCGCCACUGGUAUACGAGUGAUGUUCGGAUAUACAUAAAAUAAGGUAAUUAACAGGACCGGGUCAGAGCCGG [Tryptophan B Same State; Euphoria Solution] | 0.138 |
| GAACAUAGUAAAGGAUAUUCCUGCCUCGCGCGAUUGAUUAGUGAUGUUGACGAUAUCGCUUUGAGGGAAGAAGGUUAACAAGUCA [theeternabot_exclusion_KL_FMN_B_4] | 0.761 |
| CCGGAUUAUGCGGCCGCCACUGAGAAAUUGGAGGUACGCCCUCCCGAUAGUGAUGUUAUCCAUUACAGGACCGGGCAUCUCCUCU [theeternabot_sameState_KL_Trp_B_23] | 0.779 |
| UUAUUAAUCACAGAUACCAGUCCAGAAUGAAUACUAUAGUGAUGUUAUAAUAAAGGGAAGGACCCUUGGCAGCUGUAAUAUAUUU [AstrosSsTheB#2] | 0.525 |
| AAGUUUUAUAAACUCAUGGUUUCGUCAGAUACCAGCCUCGAGAGAGGCCCUUGGCAGCUGCAUGAGUGAUGUUCAUGUUCGAAGA [KL_XTheoA8] | 0.253 |
| GGGAGUAGUGCGGCCGCCACUGUGAGGGAAGAAGAAUAUAGUGAUGUUAUAUAGGAAGGGAAGAAUAGGACCGGGCAUUAGAUUU [SSTRyptB.aB] | 0.225 |
| UCCUAGGCUCGAAAGAGCCUAGGAUUUACUCAGGAUAUCCGGAAACGGAGAAGGGAGUGACUAGUGAUGUUAGGGACUCCCUAAA | 0.144 |
| AAAUAUAGUGAUGUUAUAUAUAUAUGUGAUACCAGAGAAAGAAAACUCCCUUGGCAGCACGAGAGAGAAUUUUUUUUUUAUAUAU [AstrosSSTheA#1] | 0.362 |
| GGGUCAUGGAACGGAUAAGUGAUGUUUACCCGAGGACCGGUACGGCCGCCACUCGGUCGUUAUUUCCGACGUGCUGGUAAGACUA [theeternabot_exclusion_KL_Trp_A_10] | 0.336 |
| AGACUACUGACAGGAUAUAACAUCCUAGUCGUAUACCGAAAGGUAUACGAUUCCCUUCUAGUGAUGUUAGAAGGGUCGGUAGUCA [Omei KL FMN B Exc B v13] | 0.151 |
| UGUGUUUACCUGACUCAGUGAUGUUGAGAAGGAGCGUGAGAAGGCACAGGUAGGUCGCUCAACCUAAAUUCAGGUGAGCACUAAA | 0.134 |
| UUUAUAUAGUCGGCCGCCACUGAUUUUUUUAUAUGUUUAUGUUUAUACGAGUGAUGUUCGAUAUACAGGACCGGGACUUUGGUUA [JR_SSTryptoB_Sub019] | 0.145 |
| UCCUUUGUUGCCAGUGAUGUUGGACAGGAAGGAGCGGGCAUAAGCCCAGGUAGGUCGCCUGUCAACUUUCUUAUAGCCCUAAGGU [KL-XArg-A16] | 0.343 |
| CGAGCGCGUGCGGCCGCCACUACUAUAAGUCGUCCAAGUUAGUGAUGUUGACUGAACGUCGGAAAUAGGACCGGGCAUAGUUUUA [theeternabot_sameState_KL_Trp_B_40] | 0.351 |
| UGUCAUGGAAACAUGACCGUUAAAAUAAAUCGAGGACCGGUACGGCCGCCACUCGUAUAGCGGUCAGUGAUGUUGACUGUAGUAC [KL-SSTryp-A form2 sub12 #dotplot2>1] | 0.419 |
| CAUAGGAAACUAUGUUUCUCUCUUACUGAAGGAGCGCGUGAAAACGCAGGUAGGUCGCAGAAUUUGAGAGUGAUGUUCUCAAUAA [Ex Arginine A K4 13] | 0.114 |
| UGUCAUUGGUCUGAUACCAGUACCCUUGGCAGCCAAGGAGUGAUGUUCCGAGGAUACCAGUGCCCUUGGCAGCAGACCGAUGACU [TheoBS 27 #DoubleAptamer #SwitchBubble] | 0.375 |
